Reference: article PMC7570020, “The PIFs Redundantly Control Plant Defense Response against Botrytis cinerea in Arabidopsis”

T1: GST-PIF5 (Arabidopsis thaliana, UniProt Q84LH8 1-444)
T1 sequence: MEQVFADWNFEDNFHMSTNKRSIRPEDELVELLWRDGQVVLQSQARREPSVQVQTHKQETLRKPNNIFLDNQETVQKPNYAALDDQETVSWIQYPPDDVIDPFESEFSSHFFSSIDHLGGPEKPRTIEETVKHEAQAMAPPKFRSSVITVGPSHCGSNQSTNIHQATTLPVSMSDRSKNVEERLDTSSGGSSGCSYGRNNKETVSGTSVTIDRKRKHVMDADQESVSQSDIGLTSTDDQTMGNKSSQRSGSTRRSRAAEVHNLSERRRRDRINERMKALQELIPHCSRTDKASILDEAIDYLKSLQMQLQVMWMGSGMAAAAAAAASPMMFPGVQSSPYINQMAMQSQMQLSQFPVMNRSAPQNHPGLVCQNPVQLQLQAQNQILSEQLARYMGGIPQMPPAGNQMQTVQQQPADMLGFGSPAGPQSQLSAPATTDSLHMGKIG

T2: GST-PIF4 bHLH (Arabidopsis thaliana, UniProt Q8W2F3 257-306)
T2 chain: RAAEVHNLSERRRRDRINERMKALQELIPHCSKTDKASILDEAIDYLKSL

B1: ERF1 G-box probe (dsDNA)
DNA 1: GAGCCAAAAACTTTGAACACGTGCGGGATATCAAATAATCA
DNA 2: TGATTATTTGATATCCCGCACGTGTTCAAAGTTTTTGGCTC
B2: ERF1 competitor (dsDNA)
DNA 1: B1 DNA 1
DNA 2: B1 DNA 2

How the values were obtained:
GST-PIF5 [1] = biological target: T1, GST-PIF5; assay: EMSA; Chemiluminescent EMSA Kit (Beyotime), manufacturer's protocol; buffer, salt, pH and temperature not stated; conditions: protein: recombinant; tags: N-terminal GST (pGEX); chain copies: 2; label: 5' biotin; blunt
GST-PIF4 bHLH [2] = biological target: T2, GST-PIF4 bHLH; assay: as above; conditions: protein: recombinant; tags: N-terminal GST (pGEX); chain copies: 2; label: 5' biotin; blunt
GST-PIF5 [3] = biological target: T1, GST-PIF5; assay: competition; increasing unlabeled competitor against labeled N1; Chemiluminescent EMSA Kit (Beyotime), manufacturer's protocol; buffer, salt, pH and temperature not stated; conditions: protein: recombinant; tags: N-terminal GST (pGEX); chain copies: 2; label: none; blunt
GST-PIF4 bHLH [4] = biological target: T2, GST-PIF4 bHLH; assay: as above; conditions: protein: recombinant; tags: N-terminal GST (pGEX); chain copies: 2; label: none; blunt

Row | Binder | binding result (GST-PIF5 [1]) | binding result (GST-PIF4 bHLH [2]) | binding result (GST-PIF5 [3]) | binding result (GST-PIF4 bHLH [4])
1 | B1 | binds | binds | – | –
2 | B2 | – | – | binds | binds
